Measured values: PMC11098746 (2024)

Molecular target: Circumsporozoite protein (CSP) (Plasmodium falciparum (isolate 3D7), UniProt Q7K740)
Test: AVEXIS screen signal:noise (double-corrected)

Circumsporozoite protein (CSP), sequence (Q7K740 19-374): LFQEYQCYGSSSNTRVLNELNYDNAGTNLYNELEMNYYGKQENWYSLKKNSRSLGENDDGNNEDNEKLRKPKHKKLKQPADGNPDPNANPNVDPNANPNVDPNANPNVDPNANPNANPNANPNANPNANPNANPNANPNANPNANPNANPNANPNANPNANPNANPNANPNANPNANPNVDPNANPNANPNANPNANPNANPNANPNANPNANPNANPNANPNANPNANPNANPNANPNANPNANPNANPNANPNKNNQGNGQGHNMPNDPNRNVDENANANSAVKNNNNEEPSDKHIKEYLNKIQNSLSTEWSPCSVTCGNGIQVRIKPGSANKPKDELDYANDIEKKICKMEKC

Binder | binding score
ADP395 (protein, bait human Fc-tagged dimer) FVNKDQIAKDVKQFYDQALQQAVVDDDANNAKAVVKTFHETLDCCGSSTLTALTTSVLKNNLCPSGSNIISNLFKEDCHQKIDDLFSGK | 1.84
ADP292 (protein, bait human Fc-tagged dimer) MARPGSAQRWAAVAGRWGCRLLALLLLVPGPGGASEITFELPDNAKQCFYEDIAQGTKCTLEFQVITGGHYDVDCRLEDPDGKVLYKEMKKQYDSFTFTASKNGTYKFCFSNEFSTFTHKTVYFDFQVGEDPPLFPSENRVSALTQMESACVSIHEALKSVIDYQTHFRLREAQGRSRAEDLNTRVA | 1.08
ADP319 (protein, bait human Fc-tagged dimer) MVSSGCRMRSLWFIIVISFLPNTEGFSRAALPFGLVRRELSCEGYSIDLRCPGSDVIMIESANYGRTDDKICDADPFQMENTDCYLPDAFKIMTQRCNNRTQCIVVTGSDVFPDPCPGTYKYLEVQYECVPYIFVCPGTLKAIVDSPCIYEAEQKAGAWCKDPLQAADKIYFMPWTPYRTDTLIEYASLEDFQNSRQTTTYKLPNRVDGTGFVVYDGAVFFNKERTRNIVKFDLRTRIKSGEAIINYANYHDTSPYRWGGKTDIDLAVDENGLWVIYATEQNNGMIVISQLNPYTLRFEATWETVYDKRAASNAFMICGVLYVVRSVYQDNESETGKNSIDYIYNTRLNRGEYVDVPFPNQYQYIAAVDYNPRDNQLYVWNNNFILRYSLEFGPPDPAQVPTTAVTITSSAELFKTIISTTSTTSQKGPMSTTVAGSQEGSKGTKPPPAVSTTKIPPITNIFPLPERFCEALDSKGIKWPQTQRGMMVERPCPKGTRGTASYLCMISTGTWNPKGPDLSNCTSHWVNQLAQKIRSGENAASLANELAKHTKGPVFAGDVSSSVRLMEQLVDILDAQLQELKPSEKDSAGRSYNKLQKREKTCRAYLKAIVDTVDNLLRPEALESWKHMNSSEQAHTATMLLDTLEEGAFVLADNLLEPTRVSMPTENIVLEVAVLSTEGQIQDFKFPLGIKGAGSSIQLSANTVKQNSRNGLAKLVFIIYRSLGQFLSTENATIKLGADFIGRNSTIAVNSHVISVSINKESSRVYLTDPVLFTLPHIDPDNYFNANCSFWNYSERTMMGYWSTQGCKLVDTNKTRTTCACSHL | 1.9
ADP299 (protein, bait human Fc-tagged dimer) MDLRQFLMCLSLCTAFALSKPTEKKDRVHHEPQLSDKVHNDAQSFDYDHDAFLGAEEAKTFDQLTPEESKERLGKIVSKIDGDKDGFVTVDELKDWIKFAQKRWIYEDVERQWKGHDLNEDGLVSWEEYKNATYGYVLDDPDPDDGFNYKQMMVRDERRFKMADKDGDLIATKEEFTAFLHPEEYDYMKDIVVQETMEDIDKNADGFIDLEEYIGDMYSHDGNTDEPEWVKTEREQFVEFRDKNRDGKMDKEETKDWILPSDYDHAEAEARHLVYESDQNKDGKLTKEEIVDKYDLFVGSQATDFGEALVRHDEF | 1.11
ADP334 (protein, bait human Fc-tagged dimer) MASGRDERPPWRLGRLLLLMCLLLLGSSARAAHIKKAEATTTTTSAGAEAAEGQFDRYYHEEELESALREAAAAGLPGLARLFSIGRSVEGRPLWVLRLTAGLGSLIPEGDAGPDAAGPDAAGPLLPGRPQVKLVGNMHGDETVSRQVLIYLARELAAGYRRGDPRLVRLLNTTDVYLLPSLNPDGFERAREGDCGFGDGGPSGASGRDNSRGRDLNRSFPDQFSTGEPPALDEVPEVRALIEWIRRNKFVLSGNLHGGSVVASYPFDDSPEHKATGIYSKTSDDEVFKYLAKAYASNHPIMKTGEPHCPGDEDETFKDGITNGAHWYDVEGGMQDYNYVWANCFEITLELSCCKYPPASQLRQEWENNRESLITLIEKVHIGVKGFVKDSITGSGLENATISVAGINHNITTGRFGDFYRLLVPGTYNLTVVLTGYMPLTVTNVVVKEGPATEVDFSLRPTVTSVIPDTTEAVSTASTVAIPNILSGTSSSYQPIQPKDFHHHHFPDMEIFLRRFANEYPNITRLYSLGKSVESRELYVMEISDNPGVHEPGEPEFKYIGNMHGNEVVGRELLLNLIEYLCKNFGTDPEVTDLVHNTRIHLMPSMNPDGYEKSQEGDSISVIGRNNSNNFDLNRNFPDQFVQITDPTQPETIAVMSWMKSYPFVLSANLHGGSLVVNYPFDDDEQGLATYSKSPDDAVFQQIALSYSKENSQMFQGRPCKNMYPNEYFPHGITNGASWYNVPGGMQDWNYLQTNCFEVTIELGCVKYPLEKELPNFWEQNRRSLIQFMKQVHQGVRGFVLDATDGRGILNATISVAEINHPVTTYKTGDYWRLLVPGTYKITASARGYNPVTKNVTVKSEGAIQVNFTLVRSSTDSNNESKKGKGASSSTNDASDPTTKEFETLIKDLSAENGLESLMLRSSSNLALALYRYHSYKDLSEFLRGLVMNYPHITNLTNLGQSTEYRHIWSLEISNKPNVSEPEEPKIRFVAGIHGNAPVGTELLLALAEFLCLNYKKNPAVTQLVDRTRIVIVPSLNPDGRERAQEKDCTSKIGQTNARGKDLDTDFTNNASQPETKAIIENLIQKQDFSLSVALDGGSMLVTYPYDKPVQTVENKETLKHLASLYANNHPSMHMGQPSCPNKSDENIPGGVMRGAEWHSHLGSMKDYSVTYGHCPEITVYTSCCYFPSAARLPSLWADNKRSLLSMLVEVHKGVHGFVKDKTGKPISKAVIVLNEGIKVQTKEGGYFHVLLAPGVHNIIAIADGYQQQHSQVFVHHDAASSVVIVFDTDNRIFGLP | 1.2
ADP111 (protein, bait human Fc-tagged dimer) MVLLRVLILLLSWAAGMGGQYGNPLNKYIRHYEGLSYNVDSLHQKHQRAKRAVSHEDQFLRLDFHAHGRHFNLRMKRDTSLFSDEFKVETSNKVLDYDTSHIYTGHIYGEEGSFSHGSVIDGRFEGFIQTRGGTFYVEPAERYIKDRTLPFHSVIYHEDDINYPHKYGPQGGCADHSVFERMRKYQMTGVEEVTQIPQEEHAANGPELLRKKRTTSAEKNTCQLYIQTDHLFFKYYGTREAVIAQISSHVKAIDTIYQTTDFSGIRNISFMVKRIRINTTADEKDPTNPFRFPNIGVEKFLELNSEQNHDDYCLAYVFTDRDFDDGVLGLAWVGAPSGSSGGICEKSKLYSDGKKKSLNTGIITVQNYGSHVPPKVSHITFAHEVGHNFGSPHDSGTECTPGESKNLGQKENGNYIMYARATSGDKLNNNKFSLCSIRNISQVLEKKRNNCFVESGQPICGNGMVEQGEECDCGYSDQCKDECCFDANQPEGRKCKLKPGKQCSPSQGPCCTAQCAFKSKSEKCRDDSDCAREGICNGFTALCPASDPKPNFTDCNRHTQVCINGQCAGSICEKYGLEECTCASSDGKDDKELCHVCCMKKMDPSTCASTGSVQWSRHFSGRTITLQPGSPCNDFRGYCDVFMRCRLVDADGPLARLKKAIFSPELYENIAEW | 0.777
ADP270 (protein, bait human Fc-tagged dimer) ALSPKCLDWWQEGPMYQIYPRSFKDSNKDGNGDLKGIQDKLDYITALNIKTVWITSFYKSSLKDFRYGVEDFREVDPIFGTMEDFENLVAAIHDKGLKLIIDFIPNHTSDKHIWFQLSRTRTGKYTDYYIWHDCTHENGKTIPPNNWLSVYGNSSWHFDEVRNQCYFHQFMKEQPDLNFRNPDVQEEIKEILRFWLTKGVDGFSLDAVKFLLEAKHLRDEIQVNKTQIPDTVTQYSELYHDFTTTQVGMHDIVRSFRQTMDQYSTEPGRYRFMGTEAYAESIDRTVMYYGLPFIQEADFPFNNYLSMLDTVSGNSVYEVITSWMENMPEGKWPNWMIGGPDSSRLTSRLGNQYVNVMNMLLFTLPGTPITYYGEEIGMGNIVAANLNESYDINTLRSKSPMQWDNSSNAGFSEASNTWLPTNSDYHTVNVDVQKTQPRSALKLYQDLSLLHANELLLNRGWFCHLRNDSHYVVYTRELDGIDRIFIVVLNFGESTLLNLHNMISGLPAKMRIRLSTNSADKGSKVDTSGIFLDKGEGLIFEHNTKNLLHRQTAFRDRCFVSNRACYSSVLNILYTSC | 7.97
ADP293 (protein, bait human Fc-tagged dimer) MALLPRLLLLLLLVFPATVLFRGGPRGLLAVAQDLTEDEETVEDSIIEDEDDEAEVEEDEPTDLVEDKEEEDVSGEPEASPSADTTILFVKGEDFPANNIVKFLVGFTNKGTEDFIVESLDASFRYPQDYQFYIQNFTALPLNTVVPPQRQATFEYSFIPAEPMGGRPFGLVINLNYKDLNGNVFQDAVFNQTVTVIEREDGLDGET | 1.28
